Source: US20160311918A1, “Anti-Ron Monoclonal Antibodies as a Cytotoxic Drug Delivery System for Targeted Cancer Therapy” (TEXAS TECH UNIVERSITY SYSTEM, priority 2013, published 2016)
“And” between values parts separate entries of the source, which are not always exact repeats. Identical values can stand only once.

How the values were obtained:
[1] = Stability of Zt/g4-DM1 at 37° C. by HIC (DAR); format: physicochemical
Text: FIGS. 1A to 1C show the generation and characterization of anti-RON ADC Zt/g4-DM1. FIG. 1A: Schematic representation of Zt/g4-DM1 structure: Zt/g4 is a mouse mAb specific to the RON sema domain (18). DM1 was conjugated to Zt/g4 by non-reducible thioether linkage (SMCC) through lysine residues in the antibody molecule. FIG. 1B: HIC analysis of the number of DM1 conjugated to Zt/g4: Individual Zt/g4-DM1s with different numbers of DM1 (0 to 8) are marked as P0 to P8. FIG. 1C: Stability of Zt/g4-DM1. Zt/g4-DM1 was kept at 37° C. for 30 days. Samples analyzed at different time-points with the average DARs were shown;
Analysis of Zt/g4-DM1 conjugation and its stability: The conjugation of DM1 to Zt/g4 was verified by hydrophobic interaction chromatography (HIC) using a Varian Prostar 210 Quaternary HPLC system coupled with a TSK butyl-NPR 4.6×3.5 column (Tosoh Biosciences (Prussia, Pa.) (31). The average DARs were calculated from the integrated areas of the DAR species. This method also was used to determine the stability of Zt/g4-DM1 at 37° C.
The stability of Zt/g4-DM1 was determined by incubating the conjugates in vitro at 37° C. for 30 days. DAR changes were measured by HIC from different time-points.

RON-negative LoVo cells = test: Cell viability assay, LoVo; format: cell-based, human
Experimental: Cell viability and death assays: Cell viability 72 h after Zt/g4-DM1 treatment was determined by the MTT assay (22). Viable or dead cells were determined by the trypan blue exclusion assay. A total of 900 cells were counted from three individual wells to reach the percentages of dead cells.
The effect of Zt/g4-DM1 on cell viability was determined. […] The cells were treated with Zt/g4-DM1.

B1: Zt/g4-DM1: anti-RON mouse mAb Zt/g4 conjugated to maytansinoid DM1 via non-reducible thioether linkage (SMCC), DAR about 4:1 (conjugate)
VH: EVQLQQSGAELVKPGASVKLSCTTSGFNIIDTYIHWVNQKPDQGLEWIGRIDPADGNRKSDPKFQVKATITVDTSSNTAYLQLSSLTSGDTAVYYCARGYGNLNAMDSWGQGTSVTVSS
VL: DIQMNQSPSSLSASLGDTITITCHASQNINVWLNWYQQKPGNIPKLLIYKASNLHTGVPSRFSGSGSGTGFTLTISSLQPEDIATYYCQQGQSYPLTFGGGTKLEIK
With B1 the “time stable at 37° C.” value [1] was “up to 30 days”, the “peak 5 share of conjugates at day 30” value ([1]; 25.39% at day 0) was 20.06% and the “peak 4 share of conjugates at day 30” value ([1]; 39.05% at day 0) was 32.72%. The “reduction in DAR after 30 days” value ([1]; day 30 vs day 0) was 6.4% and 6.5%, the “average DAR at day 30” value ([1]; in vitro, HIC) was 3.484 and the “effect on cell viability” value (RON-negative LoVo cells) was “no effect”.
